T1: SigB (residues 1–262) (Bacillus subtilis strain 168, UniProt P06574 1-262)
T1 construct: RNA polymerase sigma-B factor SigB, Bacillus subtilis strain 168, residues 1-262; also called alternative sigma factor SigB; source: E. coli BL21 Star (DE3), co-expressed with RsbW (modified pETDuet-1), co-purified as RsbW–SigB complex
T1 sequence (looked up): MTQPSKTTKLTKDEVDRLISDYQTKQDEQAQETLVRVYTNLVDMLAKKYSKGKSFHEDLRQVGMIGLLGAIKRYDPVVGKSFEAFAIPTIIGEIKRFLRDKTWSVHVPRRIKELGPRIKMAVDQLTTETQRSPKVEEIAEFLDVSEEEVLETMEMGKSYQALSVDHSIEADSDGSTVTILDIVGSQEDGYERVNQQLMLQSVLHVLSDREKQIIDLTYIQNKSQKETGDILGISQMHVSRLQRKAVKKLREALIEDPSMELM

B1: RsbW_(5–145) (residues 5–145) (domain or fragment, Bacillus subtilis strain 168, UniProt P17904 5-145, looked up)
chain: ADYIEMKVPAQPEYVGIIRLTLSGVASRMGYTYDEIEDLKIAVSEACTNAVQHAYKEDKNGEVSIRFGVFEDRLEVIVADEGDSFDFDQKQQDLGPYTPSHTVDQLSEGGLGLYLMETLMDEVRVQNHSGVTVAMTKYLNG
notes: Residues 59–64 and 85–113 (monoclinic) or 86–109 (hexagonal) are not visible in the crystal structures; also called truncated RsbW
B2: RsbV (residues 1–109) (natural protein, Bacillus subtilis strain 168, UniProt P17903 1-109, looked up)
chain: MNINVDVKQNENDIQVNIAGEIDVYSAPVLREKLVPLAEQGADLRICLKDVSYMDSTGLGVFVGTFKMVKKQGGSLKLENLSERLIRLFDITGLKDIIDISAKSEGGVQ
notes: Anti-anti-sigma-B factor RsbV, Bacillus subtilis strain 168, residues 1-109 (called full-length); Tag removed with TEV protease; also called full-length RsbV; anti-anti-sigma factor RsbV; source: E. coli BL21 Star (DE3); co-expressed with RsbW (modified pETDuet-1) or expressed alone (modified pET-28b); purified (HisTrap, TEV cleavage, SEC); not shown: His6, N-terminal, cleaved; thioredoxin, …
B3: RsbW (residues 1–160), expressed alone (natural protein, Bacillus subtilis strain 168, UniProt P17904 1-160, looked up)
chain: MKNNADYIEMKVPAQPEYVGIIRLTLSGVASRMGYTYDEIEDLKIAVSEACTNAVQHAYKEDKNGEVSIRFGVFEDRLEVIVADEGDSFDFDQKQQDLGPYTPSHTVDQLSEGGLGLYLMETLMDEVRVQNHSGVTVAMTKYLNGERVDHDTTIKNYETN
notes: Anti-sigma-B factor RsbW, Bacillus subtilis strain 168, residues 1-160; 'RsbV and RsbW alone were similarly expressed and purified following the same procedures'; also called RsbW alone; source: E. coli BL21 Star (DE3), modified pET-28b, purified (HisTrap, TEV cleavage, Superdex 75 SEC); not shown: His6, N-terminal, cleaved; thioredoxin, N-terminal, cleaved
B4: RsbW (residues 1–160), co-expressed with SigB (natural protein, Bacillus subtilis strain 168, UniProt P17904 1-160, looked up)
chain: B3 chain
notes: Anti-sigma-B factor RsbW, Bacillus subtilis strain 168, residues 1-160; source: E. coli BL21 Star (DE3), co-expressed with SigB (modified pETDuet-1), co-purified as RsbW–SigB complex
B5: RsbW (residues 1–160), co-expressed with RsbV (natural protein, Bacillus subtilis strain 168, UniProt P17904 1-160, looked up)
chain: B3 chain
notes: Serine-protein kinase / anti-sigma-B factor RsbW, Bacillus subtilis strain 168, residues 1-160 (called full-length); Four copies stand in the RsbV–RsbW octamer; also called full-length RsbW; anti-sigma factor RsbW

Columns and labels:
[1] = biological target: the molecule itself; assay: crystal structure; RsbV_(1–104)–RsbW_(5–145) complex; monoclinic crystals (25% PEG 1500, 100 mM SPG pH 8.5, 3.4 Å) and hexagonal crystals (20% PEG 3350, 200 mM potassium formate, excess ADP, 3.1 Å), 20°C
[2] = biological target: B5; assay: AF4-MALS; co-purified complexes or RsbW alone in phosphate-buffered saline pH 7.4; 50 µl injected; settings: both partners purified
[3] = biological target: the molecule itself; assay: as above
SigB (residues 1–262) = biological target: T1, SigB (residues 1–262); assay: as above; settings: both partners purified

Binder	stoichiometry N [3]	other results
B1	–	stoichiometry N [1]: 4
B2	–	stoichiometry N [2]: 1 RsbV per RsbW
B3	4	–
B4	4	stoichiometry N (SigB (residues 1–262)): 2 RsbW per SigB
B5	4	–
